Abundance fitness data for 142 variants are collected here from the Human Domainome abundance scans (Beltran et al. 2025).

± gives the uncertainty stated by the source.

First the molecules themselves.
B1: Chromodomain-helicase-DNA-binding protein 4, residues 444 to 496; numbered along this chain, Q14839 (parent)
chain: EDDHHMEFCRVCKDGGELLCCDTCPSSYHIHCLNPPLPEIPNGEWLCPRCTCP

The variants in this series derive from B1. In words: abundance fitness (aPCA) (normalised: wild type 0, dead -1); higher = more abundant; growth selection in yeast, the domain comes from the species named. Conditions: Homo sapiens.
Regarding W45P, the abundance fitness is -0.503 ± 0.046.
With W45T, the abundance fitness is -0.43 ± 0.047.
Turning to W45K, the abundance fitness was -0.549 ± 0.066.
Under W45A stands -0.517 ± 0.057; under W45V, -0.431 ± 0.054; under W45G, -0.487 ± 0.05.
Under W45I stands -0.533 ± 0.082.
Under W45L stands -0.591 ± 0.053; under W45Q, -0.509 ± 0.065; under W45H, -0.489 ± 0.065.
Consider W45E, for which the abundance fitness was -0.517 ± 0.055.
Under W45N stands -0.428 ± 0.079.
The figure for W45M is -0.398 ± 0.063; for W45Y it is -0.357 ± 0.053; for W45S it is -0.443 ± 0.048.
Under W45F stands -0.085 ± 0.084; under W45C, -0.616 ± 0.05; under W45D, -0.473 ± 0.072.
Consider W45R, for which the abundance fitness was -0.446 ± 0.044.
The figure for P48G is -0.284 ± 0.053; for P48S it is -0.21 ± 0.045; for P48C it is -0.815 ± 0.079.
On to P48M, for which the abundance fitness is -0.363 ± 0.072.
Under P48K stands -0.397 ± 0.051.
Take P48A: the abundance fitness is -0.155 ± 0.046.
Take P48H: the abundance fitness is -0.278 ± 0.055.
Under P48I stands -0.941 ± 0.12; under P48E, -0.042 ± 0.059; under P48D, -0.102 ± 0.05.
As for P48R, the abundance fitness was -0.352 ± 0.042.
The figure for P48F is -0.717 ± 0.078; for P48L it is -0.622 ± 0.042.
For the variant P48V, the abundance fitness is -0.504 ± 0.051.
As for P48W, the abundance fitness is -0.349 ± 0.051.
In the case of P48Y, the abundance fitness was -0.567 ± 0.06.
The figure for P48N is -0.54 ± 0.081; for P48T it is -0.27 ± 0.047; for N42C it is -0.061 ± 0.054.
On to N42F, for which the abundance fitness is -0.219 ± 0.053.
Take N42L: the abundance fitness is -0.077 ± 0.047.
Under N42I stands -0.096 ± 0.055; under N42Y, -0.197 ± 0.049; under N42K, 0.081 ± 0.063.
Under N42G stands 0.038 ± 0.052.
In the case of N42P, the abundance fitness was -0.065 ± 0.055.
The figure for N42D is -0.085 ± 0.054; for N42M it is -0.127 ± 0.06; for N42R it is -0.022 ± 0.053.
The figure for N42S is -0.063 ± 0.05; for N42H it is -0.094 ± 0.055.
The figure for N42Q is 0.005 ± 0.069; for N42W it is -0.253 ± 0.058; for N42V it is 0.032 ± 0.044.
For N42A, the abundance fitness amounted to 0.037 ± 0.06.
Under C47N stands -0.559 ± 0.087.
For C47K, the abundance fitness was -0.503 ± 0.074.
Under C47Y stands -0.78 ± 0.057; under C47L, -0.639 ± 0.047; under C47I, -0.697 ± 0.082.
The figure for C47H is -0.36 ± 0.052.
Regarding C47P, the abundance fitness is -0.552 ± 0.043.
The figure for C47F is -0.803 ± 0.055; for C47E it is -0.606 ± 0.094.
With C47Q, the abundance fitness is -0.627 ± 0.074.
The figure for C47R is -0.664 ± 0.041; for C47W it is -0.766 ± 0.056; for C47T it is -0.732 ± 0.063.
As for C47G, the abundance fitness was -0.652 ± 0.046.
Under C47A stands -0.804 ± 0.074.
The figure for C47V is -0.605 ± 0.055.
C47S: the abundance fitness was -0.598 ± 0.056.
Under P53S stands -0.455 ± 0.2; under P53H, 0.616 ± 0.46.
In the case of P41Q, the abundance fitness is -0.18 ± 0.062.
For P41V, the abundance fitness is -0.154 ± 0.046.
For P41A, the abundance fitness is -0.146 ± 0.059.
Under P41R stands -0.144 ± 0.053; under P41L, -0.228 ± 0.056; under P41C, -0.135 ± 0.092.
As to P41S, the abundance fitness was -0.226 ± 0.059.
For the variant P41N, the abundance fitness came to 0.029 ± 0.081.
Under P41M stands -0.187 ± 0.05; under P41F, -0.06 ± 0.1.
P41H: the abundance fitness is -0.142 ± 0.053.
Under P41K stands -0.118 ± 0.067.
The figure for P41T is -0.114 ± 0.046; for P41E it is -0.2 ± 0.06.
The figure for P41Y is -0.463 ± 0.093; for P41D it is -0.282 ± 0.097.
For the variant P41I, the abundance fitness is -0.106 ± 0.062.
The figure for P41G is -0.133 ± 0.065; for I40M it is -0.106 ± 0.067.
Under I40Q stands 0.01 ± 0.067.
Under I40A stands 0.07 ± 0.06.
In the case of I40F, the abundance fitness was -0.057 ± 0.07.
Under I40H stands 0.017 ± 0.052.
With I40R, the abundance fitness is 0.151 ± 0.052.
As to I40E, the abundance fitness is 0.056 ± 0.092.
Under I40L stands 0.01 ± 0.041; under I40G, -0.007 ± 0.059.
I40V: the abundance fitness amounted to 0.055 ± 0.043.
Consider I40S, for which the abundance fitness is -0.023 ± 0.044.
The figure for I40T is -0.005 ± 0.05; for I40K it is 0.11 ± 0.065; for I40C it is 0.019 ± 0.048.
The figure for I40P is 0.112 ± 0.052; for I40D it is -0.152 ± 0.11; for I40W it is -0.041 ± 0.071.
On to I40N, for which the abundance fitness is -0.066 ± 0.057.
The figure for I40Y is 0.016 ± 0.059; for L46T it is -0.02 ± 0.047; for L46V it is 0.106 ± 0.061.
Regarding L46A, the abundance fitness was -0.033 ± 0.04.
Under L46W stands -0.266 ± 0.064; under L46Q, -0.019 ± 0.053.
The figure for L46K is 0.079 ± 0.061.
Under L46Y stands -0.061 ± 0.07.
For the variant L46E, the abundance fitness is -0.092 ± 0.054.
Under L46R stands 0.008 ± 0.046; under L46N, 0.211 ± 0.066.
Under L46D stands -0.252 ± 0.084; under L46P, -0.426 ± 0.044.
On to L46I, for which the abundance fitness was -0.012 ± 0.063.
Under E44S stands -0.018 ± 0.042; under E44V, -0.143 ± 0.055.
Turning to E44I, the abundance fitness was -0.119 ± 0.076.
The figure for E44A is -0.07 ± 0.051; for E44N it is 0.095 ± 0.074.
On to E44T, for which the abundance fitness is -0.122 ± 0.063.
Under E44R stands -0.001 ± 0.042.
As to E44Q, the abundance fitness was -0.104 ± 0.059.
For the variant E44H, the abundance fitness is -0.057 ± 0.061.
Regarding E44W, the abundance fitness was -0.413 ± 0.076.
Under E44F stands -0.152 ± 0.08.
Take E44C: the abundance fitness was -0.21 ± 0.068.
Under E44L stands -0.024 ± 0.05; under E44K, 0.064 ± 0.073; under E44D, -0.156 ± 0.079.
On to E44M, for which the abundance fitness was -0.084 ± 0.071.
For E44G, the abundance fitness is 0.03 ± 0.056.
In the case of C50F, the abundance fitness is -0.895 ± 0.056.
Under C50Q stands -0.769 ± 0.08.
